Results taken from US20250163116A1, “NEW METHOD TO TREAT INFECTIOUS DISEASES” (INSERM (INSTITUT NATIONAL DE LA SANTÉ ET DE LA RECHERCHE …, priority 2022, published 2025).

B1: cANGPTL4: C-terminal fragment of ANGPTL4, aa 164-406, fibrinogen-like domain, purchased from R&D Systems (protein, listed as Homo sapiens)
chain: RLPEMAQPVDPAHNVSRLHRLPRDCQELFQVGERQSGLFEIQPQGSPPFLVNCKMTSDGGWTVIQRRHDGSVDFNRPWEAYKAGFGDPHGEFWLGLEKVHSITGDRNSRLAVQLRDWDGNAELLQFSVHLGGEDTAYSLQLTAPVAGQLGATTVPPSGLSVPFSTWDQDHDLRRDKNCAKSLSGGWWFGTCSHSNLNGQYFRSIPQQRQKLKKGIFWKTWRGRYYPLQATTMLIQPMAAEAAS
B2: ANGPTL4: Recombinant human ANGPTL4 (Angiopoietin-like 4), full length, SEQ ID NO: 1, purchased from R&D Systems (protein, listed as Homo sapiens)
chain: MSGAPTAGAALMLCAATAVLLSAQGGPVQSKSPRFASWDEMNVLAHGLLQLGQGLREHAERTRSQLSALERRLSACGSACQGTEGSTDLPLAPESRVDPEVLHSLQTQLKAQNSRIQQLFHKVAQQQRHLEKQHLRIQHLQSQFGLLDHKHLDHEVAKPARRKRLPEMAQPVDPAHNVSRLHRLPRDCQELFQVGERQSGLFEIQPQGSPPFLVNCKMTSDGGWTVIQRRHDGSVDFNRPWEAYKAGFGDPHGEFWLGLEKVHSITGDRNSRLAVQLRDWDGNAELLQFSVHLGGEDTAYSLQLTAPVAGQLGATTVPPSGLSVPFSTWDQDHDLRRDKNCAKSLSGGWWFGTCSHSNLNGQYFRSIPQQRQKLKKGIFWKTWRGRYYPLQATTMLIQPMAAEAAS
B3: nANGPTL4: N-terminal fragment of ANGPTL4, aa 26-164, SEQ ID NO: 24, purchased from R&D Systems (protein)
chain: GPVQSKSPRFASWDEMNVLAHGLLQLGQGLREHAERTRSQLSALERRLSACGSACQGTEGSTDLPLAPESRVDPEVLHSLQTQLKAQNSRIQQLFHKVAQQQRHLEKQHLRIQHLQSQFGLLDHKHLDHEVAKPARRK
modifications: nANGPTL4

Legend:
[1] = tested on: SCID mice grafted with human skin infected with Nm 2C4.3; assay: Vascular lesions in SCID mice grafted with human skin infected with N. meningitidis (4 h); type: in vivo; conditions: for vascular colonization of human dermal vessels at 4 hours post-infection / vessel thrombosis in skin grafts / integrity of the endothelial cell junctions (VE-cadherin staining): 1 μg/mouse i.v.; for vessel thrombosis in skin grafts: 4 h post-infection
Protocol: FIG. 7: ANGPTL4 reduces signs of thrombosis, vascular injury and inflammation. A-D, SCID mice grafted with human skins were infected intravenously with Nm 2C4.3 wild-type strain (5×10^6 bacteria) or left uninfected. A period of 30 min or 2 h after bacterial challenge, mice received 1 μg of recombinant human ANGPTL4, nANGPTL4 or cANGPTL4 intravenously or the vehicle as a control. Mice were killed at 4 h post-challenge. This experiment was performed twice with n=3 or 4 mice per group, using skin from two different donors. A, A schematic representation of the protocols used in vivo. B, Control bacteraemia 4 h post-infection (mean±s.e.m.). C, Bacterial colonization within the skin grafts as assessed by immunofluorescence analysis was quantified using ImageJ software as the ratio between bacterial surface colonization and the lumen surface of the vessels. A total of 30-50 vessels per mouse were analysed. Error bars show mean±s.e.m. D, Thrombus formation within the skin grafts was assessed by immunofluorescence analysis and quantified using ImageJ as the ratio between thrombus surfaces and the lumen surface of the vessels. A total of 30-50 vessels per mouse were analysed. Error bars show mean±s.e.m.; *** P<0.0001; ns P=0.0541 two-tailed Student's t-test.
Six-week-old CB17/Icr-Prkdcscid female mice were obtained from Janvier Labs. Human skin tissues were obtained from adult patients undergoing plastic surgery in the Service de Chirurgie Plastique et Reconstructive of the Groupe Hospitalier Saint-Joseph. […] Experimental procedures were performed as previously described in accordance with the guidelines of the Institut National de la Santé et de la Recherche Médicale and conformed to the European ethical legislation (Directive 2010/63/EU). The experimental protocol was approved by the Animal Experimentation Ethics Committee of the Université Paris Descartes (consent forms CEEA34.O.J.L.039.12 and 2018012515596498). […]. A skin flap was created and a full thickness human skin graft was placed onto the wound bed. The transplants were held in place with 6-0 non-absorbable monofilament suture materials, and the flap was then sutured above the transplant. Grafted mice were infected 4-6 weeks after human skin transplantation. N. meningitidis was grown overnight at 37° C. on GCB agar plates prepared without iron and supplemented with 15 μM deferoxamine (Desferal, Novartis). Bacterial colonies were harvested and cultured in RPMI media with 1% BSA medium and 0.06 μM deferoxamine with gentle agitation to reach the exponential phase of growth. Bacteria were then resuspended in physiological saline solution. Mice were infected intravenously with 200 μl (5×10^6 bacteria) of this bacterial suspension. A 10 mg dose of human holotransferrin (R&D Systems) was administered intraperitoneally just before infection. Mice were killed at 4 h after infection. Human skin grafts were carefully collected using a sterile cutter. The tissue was washed in PBS and fixed overnight at 4° C. in 4% paraformaldehyde in phosphate buffer. After washing in phosphate buffer, the specimens were embedded in OCT medium and then frozen at −80° C. Sections of the dermis (7 μm thick) were immobilized on Superfrost Plus microscope slides and subjected to immunofluorescence analysis. Sections were incubated with the primary antibodies for 1 h in PBS/3% BSA then DAPI was added to Alexa-conjugated secondary antibodies for 1 h. After additional washing, coverslips were mounted in glycergel (Dako) and were further analysed using a slide scanner (Lamina, Perkin Elmer). Analysis of the images was performed using ImageJ software (NIH). […]

[2] = tested on: Balb/c mice challenged with LPS; assay: LPS-induced endotoxemia (sepsis) in mice; type: in vivo; conditions: for sepsis-associated mortality / survival rate: 2 μg/mouse i.v.
Protocol: FIG. 9: ANGPTL4 protects against LPS-induced endotoxemia by preventing vascular dysfunction and organ failure. A-B, Balb/c mice received LPS (5 mg kg-1, i.p.); 30 min after LPS challenge, mice received recombinant human ANGPTL4 (2 μg, intravenously), or vehicle as a control. A, A schematic representation of the protocol used. B, Survival curve (n=16 mice per group): **** P<0.0001; two-sided log-rank Mantel-Cox survival analysis. C,D, Balb/c mice received LPS (5 mg kg-1, i.p.); 30 min after LPS challenge, mice received nANGPTL4 (2 μg, intravenously), or vehicle as a control. C, A schematic representation of the protocol used. D, Survival curve (n=6 mice per group): ** P=0.0033; two-sided log-rank Mantel-Cox survival analysis. E, F, Balb/c mice received LPS (5 mg kg-1, i.p.); 30 min after LPS challenge, mice received Peptide 1 (2 μg, intravenously), or vehicle as a control. E, A schematic representation of the protocol used. F, Survival curve (n=6 mice per group): * P=0.0163; two-sided log-rank Mantel-Cox survival analysis. G, Balb/c mice received LPS (5 mg kg-1. i.p.): 30 min after LPS challenge, mice received recombinant human peptide P9 (2 μg. intravenously). or vehicle as a control. Survival curves (n=6 mice per group). *** P<0.001: two-sided log-rank Mantel-Cox survival analysis. H. Balb/c mice received LPS (4 mg kg-1. i.p.) together with anti-ANGPTL4 blocking antibody (10 μg kg-1. i.v) or vehicle as a control. 18 h after LPS challenge. mice were perfused with Evans blue for 1 h. were killed and brain were extracted. Quantification analysis of Evans blue extravasation (n=4 mice per group). Bars and error bars show the mean±s.e.m., respectively, from two independent experiments: *** P<0.001: NS, not significant (P>0.05) one-way ANOVA Tukey's multiple comparison test.
Female BALB/c mice, obtained from Janvier Labs, 9-10 weeks of age, were administered LPS at 5 mg/kg intraperitoneally and survival was monitored for 72 h (n=12 per group). BALB/c mice were randomly divided into 2 groups: LPS and LPS+Angptl4. Angptl4 (2 μg/mice) or vehicle (physiological saline solution) was administered intravenously 30 min after LPS challenge. In some experiments, blood serum, kidney and lung were collected at 18 h post-LPS challenge. Kidney and lungs were fixed in 4% PFA, embedded in paraffin, and 5-μm sections were cut from each block and stained with H&E. The stained sections were observed and acquired using a slide scanner (Lamina, Perkin Elmer). Analysis of the images was performed using ImageJ software (NIH).
Since severe endothelial dysfunction, leading to dysregulation of hemostasis and vascular dysfunction, is central to the progression to organ failure during sepsis, we analysed whether ANGPTL4 could play a protective role in sepsis, using a lipopolysaccharide (LPS)-induced endotoxemia (FIG. 9A). After LPS-challenge (5 mg kg-1, i.p.), all mice died within two days (FIG. 9B).

[3] = 18 h post-LPS challenge, data not shown

Molecule | vascular colonization of human dermal vessels at 4 hours post-infection [1] | vessel thrombosis in skin grafts [1] | production of proinflammatory factors and biomarkers of vascular inflammation ([1]; 1 μg/mouse, data not shown) | sepsis-associated mortality / survival rate ([2]; LPS 5 mg kg-1 i.p.) | integrity of the endothelial cell junctions (VE-cadherin staining) ([1]; data not shown) | effect on inflammatory markers upon administration at 2 h ([1]; administration 2 h post-infection, data not shown) | reduction of serum levels of TNF-α, IL-6, IL-8, soluble E-selectin, ICAM-1, VCAM-1, Angiopoetin-2, Thrombomodulin ([1]; mice sera, early administration (30 min), data not shown) | LPS-induced acute lung injury (histopathology) [2, 3] | LPS-induced renal haemorrhage [2, 3] | mice surviving LPS challenge ([2]; LPS 5 mg kg-1 i.p., 2 μg/mouse i.v. 30 min after LPS, all control mice died within two days) [%] | overall weight loss ([2]; compared to vehicle-treated control groups) | body temperature ([2]; data not shown)
B1 | no effect on vascular colonization | reduced vessel thrombosis | most efficient at preventing the production of proinflammatory factors and biomarkers of vascular inflammation | did not significantly increased the survival rate | – | – | – | – | – | – | – | –
B2 | – | largely reduced vessel thrombosis | – | markedly reduced sepsis-associated mortality rate | preserved the integrity of the endothelial cell junctions | no effect | 60-80% | no pathological signs | no sign of haemorrhage | 80 | not significantly reduced | rapidly stabilized
B3 | no effect on vascular colonization | reduced vessel thrombosis | – | reduced sepsis-associated mortality rate as efficiently as the full-length protein | preserved the integrity of the endothelial cell junctions | – | – | – | – | – | – | –
